Test [1] addresses T1, human CD200R1 expressed on cells (Jurkat-CD200R1, U937-CD200R1, HH cells) (human, UniProt Q8TD46 25-348).
T1 construct: whole, on cells; also called HH (CRL-2105); cell surface-expressed CD200R1
T1 sequence (looked up): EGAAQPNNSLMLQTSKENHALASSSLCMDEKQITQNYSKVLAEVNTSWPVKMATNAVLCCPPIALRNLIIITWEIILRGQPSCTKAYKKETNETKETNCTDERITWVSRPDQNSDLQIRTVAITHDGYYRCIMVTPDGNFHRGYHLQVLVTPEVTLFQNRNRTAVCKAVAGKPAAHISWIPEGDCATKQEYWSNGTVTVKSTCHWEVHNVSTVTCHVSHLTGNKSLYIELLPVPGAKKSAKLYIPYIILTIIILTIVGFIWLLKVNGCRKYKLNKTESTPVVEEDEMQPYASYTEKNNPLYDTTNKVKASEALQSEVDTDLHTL
The test is described as follows: flow cytometry on Jurkat-CD200R1 and HH cells, 500 nM antibody in IgG1 form. Here is the method:
The cells were washed by centrifugation at 130 g for 5 minutes. The cells were seeded onto 96-well round-bottom plates (SPL, #34296) at a density of 1×10⁵ cells/well in Flow cytometry staining buffer (Invitrogen, #00-4222-26) or FACS buffer. […] After incubation for 1 hour at 4° C., the cells were treated with Alexa-647 Goat anti-human IgG (H+L) cross-adsorbed secondary antibody (Invitrogen, #A21445) and incubated at 4° C. for an additional 30 minutes. After washing twice with FACS buffer, flow cytometry analysis was performed using a Novocyte Flow cytometer (Agilent).
On the technique in general: Flow cytometry measures light scatter and fluorescence of single cells or particles in a stream.

Test [2] addresses T2, human CD200R1 recombinant protein (construct not stated) (human, UniProt Q8TD46 27-266, limits assumed).
T2 sequence (looked up): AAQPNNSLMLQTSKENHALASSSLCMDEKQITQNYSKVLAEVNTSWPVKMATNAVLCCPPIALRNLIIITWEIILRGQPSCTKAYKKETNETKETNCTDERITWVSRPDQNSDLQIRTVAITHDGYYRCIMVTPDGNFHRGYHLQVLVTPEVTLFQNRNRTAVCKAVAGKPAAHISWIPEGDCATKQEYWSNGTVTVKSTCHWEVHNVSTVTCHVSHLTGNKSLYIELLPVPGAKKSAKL
Kind of test: ELISA on human CD200R1, O.D 450 nm, 0.0192-300 nM; panel 'P001_CD200R1 human 1'. Here is the method:
96-well plates were coated with human CD200R1 (R&D systems, 3414-CD) and mouse CD200R1 protein (R&D systems, 2554-CD) at a concentration of 2 μg/mL at 4° C. for 16 hours and then were blocked with 3% skim milk.
Color was developed with a TMB substrate solution (Thermo Scientific, 34029, 1-Step™ TMB-ELISA Ultra Substrate Solution). The color reaction was stopped with stop solution (Invitrogen, SS04, ELISA Stop Solution). The absorbance was measured at an optical density of 450 nm.
The secondary engineered antibodies were evaluated by ELISA in the same manner as in Examples described above.

For test [3], the target named is T1, human CD200R1 expressed on cells …. Kind of test: flow cytometry, HH cells; drawn table, row EC50.
The target is the same in test [4]. Kind of test: flow cytometry, HH cells; drawn table.
Test [5] has as its target T3, human CD200RLa (Sino Biological, 11620-H08H) recombinant protein (human, UniProt Q6Q8B3 24-239).
T3 construct: Bought; construct not described
T3 sequence (looked up): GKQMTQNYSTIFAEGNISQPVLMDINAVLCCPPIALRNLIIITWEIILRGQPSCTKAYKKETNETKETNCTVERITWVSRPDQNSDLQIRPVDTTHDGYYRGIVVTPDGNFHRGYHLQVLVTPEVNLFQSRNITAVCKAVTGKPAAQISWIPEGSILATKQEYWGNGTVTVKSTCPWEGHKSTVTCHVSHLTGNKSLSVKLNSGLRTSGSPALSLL
Kind of test: ELISA, plate-bound human CD200RLa (2 ug/mL), antibody 0.0192-300 nM, O.D 450 nm; panel 'recombinant human CD200RLa'. The method in brief: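 Plates coated overnight (16 h, 4° C) with human or cynomolgus CD200RLa recombinant protein, blocked with 3% skim milk; bound antibody detected by TMB colour development, reaction stopped before reading.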
A general note: In an ELISA, binding on a coated surface is turned into a signal by an enzyme label.

Test [6] has as its target T4, Hybrid CD200R1 MH (mouse;human, UniProt Q9ES57;Q8TD46).
T4 construct: single domain; mouse D1 over human D2; also called MH hybrid domain; P001 MH domain
T4 sequence (hybrid extracellular part, looked up): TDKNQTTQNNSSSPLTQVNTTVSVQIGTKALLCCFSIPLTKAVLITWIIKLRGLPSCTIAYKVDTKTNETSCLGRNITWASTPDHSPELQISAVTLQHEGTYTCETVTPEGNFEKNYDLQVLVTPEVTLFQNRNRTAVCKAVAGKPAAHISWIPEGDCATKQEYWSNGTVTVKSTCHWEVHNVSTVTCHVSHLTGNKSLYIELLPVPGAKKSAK
Kind of test: ELISA, plate-bound MH hybrid (1 ug/mL), antibody 0.0192-300 nM, O.D 450 nm; panel 'P001 MH domain-1)'. The procedure:
(§1) Recombinant proteins were produced from the extracellular Ig-like V-type domain and Ig-like C2-type domain of human CD200R1, each designed as human-mouse (HM hybrid domain) and mouse-human (MH hybrid domain) recombinant proteins. A 96-well plate was coated at a concentration of 1 μg/mL with each protein at 4° C. for 16 hours and blocked with 3% skim milk. […] After color development with TMB substrate solution (Thermo Scientific, 34029, 1-Step™ Ultra TMB-ELISA Substrate Solution), the color reaction was stopped with a stop solution (Invitrogen, SS04, ELISA Stop Solution), and the absorbance was measured at an O.D. of 450 nm.

For test [7], the target named is T5, mouse CD200R1 protein (R&D systems, 2554-CD) (mouse, UniProt Q9ES57 26-238, limits assumed).
T5 construct: Bought; construct not described
T5 sequence (looked up): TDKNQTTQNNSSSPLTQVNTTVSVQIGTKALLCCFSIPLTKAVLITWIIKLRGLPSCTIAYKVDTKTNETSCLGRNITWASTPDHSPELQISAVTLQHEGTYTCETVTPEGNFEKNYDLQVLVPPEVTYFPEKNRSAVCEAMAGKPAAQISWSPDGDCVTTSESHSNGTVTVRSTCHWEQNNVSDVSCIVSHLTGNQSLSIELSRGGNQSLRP
The test is described as follows: ELISA, plate-bound mouse CD200R1 (2 ug/mL), IgG 0.0192-300 nM, OD 450 nm; panel 'mouse CD200R1'. The method in brief: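 Wells coated with antigen at 2 μg/mL (4 °C, 16 h) and blocked with 3% skim milk before IgG addition. Bound antibody developed with TMB, reaction stopped, absorbance read at 450 nm.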

Test [8] concerns the target T4, Hybrid CD200R1 MH. The test is described as follows: ELISA, plate-bound MH hybrid (1 ug/mL), antibody 0.0192-300 nM, O.D 450 nm; panel 'P001 MH domain-2)'. The procedure: as §1
For test [9], the target named is T6, monkey CD200RLa (Sino Biological, 11576-C02H) recombinant protein (monkey (cyno), UniProt A0A2K5W6R0 30-246).
T6 construct: Bought; construct not described; also called cyno CD200RLa
T6 sequence: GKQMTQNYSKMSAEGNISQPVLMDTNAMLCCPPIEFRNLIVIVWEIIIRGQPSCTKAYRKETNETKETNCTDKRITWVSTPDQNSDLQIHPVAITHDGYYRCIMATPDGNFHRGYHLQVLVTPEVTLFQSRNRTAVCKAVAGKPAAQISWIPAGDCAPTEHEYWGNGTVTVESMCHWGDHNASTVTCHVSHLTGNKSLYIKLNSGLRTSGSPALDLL
The test is described as follows: ELISA, plate-bound monkey CD200RLa (2 ug/mL), antibody 0.0192-300 nM, O.D 450 nm; panel 'recombinant cynomolgus CD200RLa/Fc'. The procedure: 96-well plates were coated with human CD200RLa (Sino Biological, 11620-H08H) and monkey CD200RLa (Sino Biological, 11576-C02H) recombinant proteins at a concentration of 2 μg/mL at 4° C. for 16 hours, and blocked with 3% skim milk for 1 hour. […] Color was developed with a TMB substrate solution (Thermo Scientific, 34029, 1-Step™ Ultra TMB-ELISA Substrate Solution). The color reaction was stopped with stop solution (Invitrogen, SS04, ELISA Stop Solution).

The target of test [10] is T4, Hybrid CD200R1 MH. Kind of test: ELISA, plate-bound MH hybrid (1 ug/mL), antibody 0.0192-300 nM, O.D 450 nm; panel 'P001 MH domain-4)'. The procedure:
as §1

In test [11] the target is T2, human CD200R1 recombinant protein …. The test is described as follows: hybridoma ELISA on human CD200R1.

As usually defined, the EC50 (read off the curve) is the midpoint of the concentration-response curve. By EC50 is commonly meant the concentration that produces a half-maximal response.

Where “and” joins values, the source holds several entries; their conditions need not be identical. Equal entries are not always repeated.

B1: P001018 (huOX108.1) (antibody, V domains shown)
VH: QVQLVQSGAEVKKPGASVKVSCKASGYTFTSYVMHWVRQAPGQGLEWMGYINPYNDDTNYNEKFKGRVTMTRDTSTSTVYMELSSLRSEDTAVYYCAREDYYGSRWGYWGQGTLVTVSS
VL: DIVLTQSPASLAVSPGQRATITCRASKSVSTSGYSYMHWYQQKPGQPPKLLIYLASNLESGVPARFSGSGSGTDFTLTINPVEANDTANYYCQHSRELLTFGQGTKVEIK
notes: also called humanized antibody P001018
Consider B1, for which the “MFI normalized to P001017 (chimeric OX108), %” value (“MFI normalized to P001017 … %” for short) in test [1] is over 50%. In addition, in test [2], the 50% effective concentration (EC50 (read off the curve)) was ~2 nM and ~5 nM. The same molecule returned a half-maximal effective concentration (EC50) in [3] of 6.64 nM. Also, in test [4], the “Geo mean (%) at 0.05 nM” value was found to be 2.1%, the “Geo mean (%) at 0.19 nM” value was determined as 6.1%, the “Geo mean (%) at 0.78 nM” value is 15.8% and the “Geo mean (%) at 3.125 nM” value came out at 35.2%. Further, in test [4], the “Geo mean (%) at 12.5 nM” value was found to be 65.7%, the “Geo mean (%) at 50 nM” value stood at 79.7%, the “Geo mean (%) at 200 nM” value came out at 96.9% and the “Geo mean (%) at 800 nM” value came out at 100%. The binding result in test [5] is given as “no binding (tested: 300 nM)”.

B2: P001004 (IgG) (antibody, V domains shown)
VH: EVQLLESGGGLVQPGGSLRLSCAASGFTFSDYYMSWVRQAPGKGLEWVSGIYPGDGSIYYADSVKGRFTISRDNSKNTLYLQMNSLRAEDAAVYYCAKGLDLYEPMAFDYWGQGTLVTVSS
VL: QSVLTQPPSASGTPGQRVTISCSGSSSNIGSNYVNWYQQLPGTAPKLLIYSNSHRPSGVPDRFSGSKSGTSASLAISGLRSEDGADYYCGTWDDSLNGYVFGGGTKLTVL
With B2, the “MFI normalized to P001017 … %” value in test [1] was over 50%. For the same molecule, the binding result (with Hybrid CD200R1 MH [6]; in [5]; in test [7]) was “no binding (tested: 300 nM)” each time.

B3: P001008 (IgG) (antibody, V domains shown)
VH: EVQLLESGGGLVQPGGSLRLSCAASGFTFSSYDMSWVRQAPGKGLEWVSWISHGGGSIYYADSVKGRFTISRDNSKNTLYLQMNSLRAEDTAVYYCARDAPALMHSLFDYWGQGTLVTVSS
VL: QSVLTQPPSASGTPGQRVTISCSGSSSNIGSNHVNWYQQLPGTAPKLLIYYDSQRPSGVPDRFSGSKSGTSASLAISGLRSEDEADYYCGSWDASLNGYVFGGGTKLTVL
B3: in test [1], the “MFI normalized to P001017 … %” value was over 50%. The binding result (with Hybrid CD200R1 MH [8]; in test [9]; in [5]; in test [7]) was “no binding (tested: 300 nM)” each time.

B4: P001010 (IgG) (antibody, V domains shown)
VH: EVQLLESGGGLVQPGGSLRLSCAASGFTFSNYAMSWVRQAPGKGLEWVSSISPGGGSIYYADSVKGRFTISRDNSKNTLYLQMNSLRAEDTAVYYCARDPGQMFWPLFDYWGQGTLVTVSS
VL: QSVLTQPPSASGTPGQRVTISCTGSSSNIGSNNVSWYQQLPGTAPKLLIYDDSHRPSGVPDRFSGSKSGTSASLAISGLRSEDEADYYCGSWDASLNGYVFGGGTKLTVL
As for B4, the binding result (with Hybrid CD200R1 MH [8]; in test [5]; in test [7]) was “no binding (tested: 300 nM)” each time.

B5: 6A10 (hybridoma clone) (antibody, V domains shown)
VH: QLQQSGAELVRSGASVKLSCTASGFNIKDYYLHWIKQRPEQGLEWIGWIDPENGDTEYAPKFQGKATMTADTSSNTAYLQLISLTSEDAAVYYCFAGGSYWGQGTSVTVSS
VL: DIVMTQSPSSLSVSAGEKVTMSCKSSQSLLNSGNQKNYLAWYQQKPGQPPKLLIYGASTRESGVPDRFTGSGSGTDFTLTISSVQAEDLAVYYCQNDHSYPYTFGGGTKLEIK
As to B5, the binding result with Hybrid CD200R1 MH [10] is “no binding (tested: 300 nM)”. The “ELISA O.D.” value in [11] was at least 1.5 O.D.

B6: 1H10 (hybridoma clone) (antibody, V domains shown)
VH: QVQLQQPGAELVKPGTSVKLSCKASGYNFTSYWINWVKLRPGQGLEWIGDINPGSGSTNYNEKFRSKATLTVGTSSSTAYMQLSSLASEDSALYYCAREDYYGSRFFYWGQGTLVTVSA
VL: DVVMTQTPLSLPVSLGDQASISCRSSQSLVHSNGNTYLHWYLQKPGQSPKLLIYKVSNRFSGVPDRFSGSGSGTDFTLKISRVEAEDLGVYFCSQSTHVTFGAGTKLELK
For the molecule B6, the binding result in the test with Hybrid CD200R1 MH [10] is given as “no binding (tested: 300 nM)”. Besides, the “ELISA O.D.” value in [11] is at least 1.5 O.D.

Source of the values: patent US20260263521A1 (AIMED BIO, published 2026).
